In experiment [1] the target is Recombinant CbpF from Fn ATCC 25586 (group I), passenger domain (UniProt Q8RIS0). Put plainly: ELISA. The note with it: 3 pmol CbpF; 15 fmol CEACAM1-3-Fc mutant; developed for 5 hrs at 37°C; parent: est. 0.43; read off a plot. (In an ELISA, binding on a coated surface is turned into a signal by an enzyme label.)
Experiment [2] deals with Recombinant CbpF from clinical strain 2B3 (group II), passenger domain, pOPINE construct. Put plainly: ELISA. The note with it: 3 pmol CbpF; 15 fmol CEACAM1-3-Fc mutant; developed for 5 hrs at 37°C; parent: est. 0.66; read off a plot.
Experiment [3] deals with CEACAM binding protein of Fusobacterium (CbpF) of F. nucleatum ATCC 25586, FN1499 (Fusobacterium nucleatum ATCC 25586 (endogenous)). Put plainly: migration on SDS-PAGE and Western blot; native CbpF in lysate or co-precipitate runs at ~150 kDa against ~50 kDa predicted for the mature chain; Fn lysate gives a ~50 kDa band after 70% formic acid.
Experiment [4] concerns the target Recombinant CbpF from Fn ATCC 25586 (group I), passenger domain (Fusobacterium nucleatum ATCC 25586) (UniProt Q8RIS0). Put plainly: ELISA; purified CbpFI and CbpFII (3 pmol) immobilised on plates; 1 pmol of each CEACAM-Fc variant; anti-human secondary antibody.
The target in experiment [5] is CEACAM binding protein of Fusobacterium (CbpF) of F. vincentii ATCC 49256, FNV1729 (Fusobacterium vincentii ATCC 49256 (endogenous)). Put plainly: migration on SDS-PAGE and Western blot; native CbpF in lysate or co-precipitate runs at ~150 kDa against ~50 kDa predicted for the mature chain; Fn lysate gives a ~50 kDa band after 70% formic acid.
Experiment [6] has as its target T1, Recombinant CbpF from Fn ATCC 25586 (group I), passenger domain, Q8RIS0.
T1 chain: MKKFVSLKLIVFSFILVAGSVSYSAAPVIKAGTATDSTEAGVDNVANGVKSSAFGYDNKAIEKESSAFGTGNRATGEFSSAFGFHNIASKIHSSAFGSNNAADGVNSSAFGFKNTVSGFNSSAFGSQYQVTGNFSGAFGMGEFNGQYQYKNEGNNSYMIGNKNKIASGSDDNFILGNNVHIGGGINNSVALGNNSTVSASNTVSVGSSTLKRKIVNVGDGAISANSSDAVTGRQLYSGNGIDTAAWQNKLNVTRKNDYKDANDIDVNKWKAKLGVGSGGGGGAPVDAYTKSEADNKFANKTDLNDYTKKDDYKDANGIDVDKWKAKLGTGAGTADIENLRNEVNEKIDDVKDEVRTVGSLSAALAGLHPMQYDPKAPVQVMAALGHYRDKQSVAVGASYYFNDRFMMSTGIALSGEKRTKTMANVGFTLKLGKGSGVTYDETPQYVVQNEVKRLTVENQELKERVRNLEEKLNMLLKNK
Put plainly: ELISA. The note with it: chain shown with the change; 3 pmol CbpF; 15 fmol CEACAM1-3-Fc mutant; developed for 5 hrs at 37°C; parent: est. 0.43; read off a plot.

The target of experiment [7] is Recombinant CbpF from clinical isolate 2B3 (protein of Figure 8, dot blot and Figure S9). Put plainly: ELISA. The note with it: chain shown with the change; read at 2 µg.ml-1 of the Fc construct (highest point of the titration); recombinant CbpF immobilised; parent: est. 1.9; read off a plot.

Numbering of substitutions follows the chain as printed. In names and notes the source's numbering stands.

The stoichiometry N is a count of units in the complex or per binding partner.

With “CEACAM1-3-Fc (containing N-A1-B1 domains) F29Y”, the response in experiment [1] turned out to be 0.017 A405; in experiment [2] it was 0.082 A405. The like results for “CEACAM1-3-Fc (containing N-A1-B1 domains) F29I” were, in that order, 0.012 A405 and 0.017 A405. On the same counts, the results for “CEACAM1-3-Fc (containing N-A1-B1 domains) I91A” are 0.02 A405 and 0.01 A405. With “CEACAM binding protein of Fusobacterium (CbpF) of F. nucleatum ATCC 25586, FN1499 (natural protein)”, in experiment [3], the stoichiometry N is 3. Take “CEACAM1-3-Fc (containing N-A1-B1 domains) Y34F”: the values for the response in experiment [1] and in experiment [2] were 0.017 A405 and 0.013 A405, respectively. As to “CEACAM1-3-Fc (containing N-A1-B1 domains) Q44L”, the response in experiment [1] was found to be 0.027 A405; in experiment [2], 0.021 A405. With “CEACAM1-Fc, comprising all extracellular CEACAM1 domains fused to the human immunoglobulin G (IgG) Fc domain (from UniProt P13688 35-428) (Fc fusion)”, the binding relative to group II CbpF in experiment [4] worked out at 75%. Turning to “CEACAM1-3-Fc (containing N-A1-B1 domains) Q44E”, the response in experiment [1] amounted to 0.02 A405; in experiment [2], 0.017 A405. Consider “CEACAM1-3-Fc (containing N-A1-B1 domains) I91G”, for which the response came to 0.066 A405 in experiment [1] and 0.017 A405 in experiment [2].

As for “CEA-Fc (from UniProt P06731 35-685) (Fc fusion)”, in experiment [4], the binding relative to group II CbpF amounted to 50%. With “CEACAM1-3-Fc (containing N-A1-B1 domains) F29G”, the response in experiment [1] and in experiment [2] was 0.012 A405 throughout. In the case of “CEACAM1-3-Fc (containing N-A1-B1 domains) F29R”, the response in experiment [1] and in experiment [2] was 0.013 A405 each time.

Turning to “CEACAM binding protein of Fusobacterium (CbpF) of F. vincentii ATCC 49256, FNV1729 (natural protein)”, the stoichiometry N in experiment [5] is 3. Consider “CEACAM1-3-Fc (containing N-A1-B1 domains) Y34S”, for which the values for the response in experiment [1] and in experiment [2] were 0.017 A405 and 0.012 A405, respectively. The like results for “CEACAM1-3-Fc (containing N-A1-B1 domains) Q44R” were, in that order, 0.02 A405 and 0.013 A405. Consider “CEACAM1-3-Fc (containing N-A1-B1 domains) G47L”, for which the results for the response in experiment [1] and in experiment [2] were 0.007 A405 and 0.008 A405, respectively.

For “CEACAM1-3-Fc (containing N-A1-B1 domains) V96A”, the response in experiment [2] stood at 0.87 A405.

In the case of “CEACAM1-3-Fc (containing N-A1-B1 domains) Q89N”, the response in experiment [2] came to 0.17 A405. On to “CEACAM1-3-Fc (containing N-A1-B1 domains) Y34A”, for which the figures for the response in experiment [1] and in experiment [2] were 0.021 A405 and 0.043 A405, respectively. For “CEACAM1-3-Fc (containing N-A1-B1 domains) I91L”, the results for the response in experiment [1] and in experiment [2] were 0.022 A405 and 0.006 A405, respectively.

B1: CEACAM1-3-Fc (containing N-A1-B1 domains) V96A (protein)
chain: QLTTESMPFNVAEGKEVLLLVHNLPQQLFGYSWYKGERVDGNRQIVGYAIGTQQATPGPANSGRETIYPNASLLIQNVTQNDTGFYTLQVIKSDLANEEATGQFHVYPELPKPSISSNNSNPVEDKDAVAFTCEPETQDTTYLWWINNQSLPVSPRLQLSNGNRTLTLLSVTRNDTGPYECEIQNPVSANRSDPVTLNVTYGPDTPTISPSDTYYRPGANLSLSCYAASNPPAQYSWLINGTFQQSTQELFIPNITVNNSGSYTCHANNSVTGCNRTTVKTIIVTGK
B1: in experiment [6], the response amounted to 0.4 A405.

B2: CEACAM1-3-Fc (containing N-A1-B1 domains) Q89N (protein)
chain: B1 chain with Q89N, A96V
For B2, the response in experiment [6] was found to be 0.024 A405.

B3: CEACAM1-Fc, comprising all extracellular CEACAM1 domains fused to the human immunoglobulin G (IgG) Fc domain, P13688 I91A (protein)
chain: QLTTESMPFNVAEGKEVLLLVHNLPQQLFGYSWYKGERVDGNRQIVGYAIGTQQATPGPANSGRETIYPNASLLIQNVTQNDTGFYTLQVAKSDLVNEEATGQFHVYPELPKPSISSNNSNPVEDKDAVAFTCEPETQDTTYLWWINNQSLPVSPRLQLSNGNRTLTLLSVTRNDTGPYECEIQNPVSANRSDPVTLNVTYGPDTPTISPSDTYYRPGANLSLSCYAASNPPAQYSWLINGTFQQSTQELFIPNITVNNSGSYTCHANNSVTGCNRTTVKTIIVTELSPVVAKPQIKASKTTVTGDKDSVNLTCSTNDTGISIRWFFKNQSLPSSERMKLSQGNTTLSINPVKREDAGTYWCEVFNPISKNQSDPIMLNVNYNALPQENGLSPG
Regarding B3, in experiment [7], the response stood at 0 A405.
